The values that follow come from paper PMC7083937, “The ribosome-associated complex RAC serves in a relay that directs nascent chains to Ssb” (Nature Communications, 2020).

Numbering of substitutions follows the chain as printed. Numbers in names are those of the source. Entries after “also recorded” stand apart in the source; their conditions may differ.

Data set [1] concerns nascent Pgk1-100. As to the kind of experiment: crosslinking to ribosome-bound nascent chain. Type of data set: binding, Saccharomyces cerevisiae. The note with it: BS3. The source says: (§1) DNA templates for transcription reactions were generated by PCR using pSPUTK-Pgk1[20] as a template. Reverse primers were designed such, that PCR products encoded different length PGK1 sequences, which all lacked a stop codon. The length of the resulting translation products, which remain ribosome-bound, is indicated in Results and Figure Legends. Transcripts were generated using SP6 polymerase (Thermo Fischer Scientific) as previously described. RNCs were generated via translation reactions primed with the stop codon-less transcripts at 20 °C in the presence of [^35S]-methionine (Hartmann-Analytic) for 80 min[20],[54]. Translation reactions were stopped by the addition of 50 µg/ml cycloheximide final concentration and subsequently RNCs were isolated via centrifugation at 400.000 g for 20 min in a TLA-100 or TLA-100.2 rotor (Beckman Coulter)[20].
(§2) Chemical crosslinking of ribosome-bound nascent chains to Ssb, Zuo1, or Ssz1 was analyzed essentially as described. In brief, resuspended RNCs were incubated in the presence of 400 µM BS^3 (bis-(sulfosuccinimidyl)-suberate, spacer length 1.14 nm, Thermo Scientific) for 20 min on ice and crosslinking was then quenched by the addition of TRIS base (tris(hydroxymethyl)aminomethane) to a final concentration of 50 mM. Crosslinked protein samples were precipitated by the addition of TCA (final concentration 5%), pellets were collected by centrifugation and were dissolved in dissociation buffer (200 mM TRIS/HCl pH 7.5, 4% SDS; 10 mM EDTA, 100 µg/ml BSA, protease inhibitor mix, 1 mM PMSF). Totals shown in Figs. 1,3 and Supplementary Fig. 1 before (total) and after BS^3 crosslinking (total + BS^3) represent 5% of the dissolved material employed for immunoprecipitation reactions. The resulting denatured protein samples were used to identify crosslink products between Ssb, Zuo1, or Ssz1 and nascent chains via affinity purification under denaturing conditions. To that end, protein A sepharose beads (GE Healthcare) were pre-coated with antibodies directed against Ssb, Zuo1, or Ssz1 and subsequently the denatured crosslinked material was allowed to bind to the beads resuspended in immunoprecipitation buffer (10 mM TRIS/HCl pH 7.5, 150 mM NaCl, 5 mM EDTA, 1% Triton X-100, protease inhibitor mix, 0.5 mM PMSF)[20]. Crosslink products bound to protein A sepharose beads were released by addition of SDS-sample buffer at 95 °C for 10 min. Samples were analyzed on Tris-Tricine gels[56] followed by autoradiography. Loading was normalized according to the signal of [^35S]-labelled nascent Pgk1 in the total prior to crosslinking. Relative crosslinking efficiencies between nascent Pgk1-100 and Zuo1 or Ssz1, respectively were determined as follows. For each biological replicate, band intensities of non-crosslinked nascent Pgk1-100 and of Pgk1-100 crosslink products (XL-Zuo1 or XL-Ssz1) was determined on a single autoradiograph for wild type RAC and the different mutant variants of RAC. The crosslinking efficiency (XL-Zuo1/Pgk1-100 or XL-Ssz1/Pgk1-100) of each sample was calculated and subsequently the ratio of XL-Zuo1/Pgk1-100 or XL-Ssz1/Pgk1-100 in the presence of wild type RAC was set to 1 in order to normalize the biological replicates (see Fig. 3c,d). The original data are provided as a Source Data file.
For complementation experiments translation reactions were performed in either ∆ssb1∆ssb2 or ∆ssb1∆ssb2∆zuo1∆ssz1 translation extract as indicated. Complementation with purified Ssb1 was performed by adding His6-tagged ScSsb1 at a final concentration of 2 µM to the translation reaction prior to the addition of mRNA. Ribosome-free cytosolic extract of various mutant yeast strains for complementation experiments as indicated in Results and Figure Legends was generated as follows. The A260 of a total cell extract prepared by the glass beads method (see above) was determined, and the total cell extract was subsequently adjusted to a final concentration of 800 mM KOAc. […]

The test system of data set [2] is ribosomes. Briefly: ribosome-binding assay. Also on record: species or system Saccharomyces cerevisiae. The protocol: Yeast strains were grown to early log phase on YPD, prior to harvest cycloheximide was added to a final concentration of 100 µg/ml, and subsequently cells were collected via centrifugation at 5000 g. Cell pellets were resuspended in ribosome-binding buffer (20 mM Hepes/KOH pH 7.4, 2 mM Mg(OAc)2, 120 mM KOAc, 100 µg/ml cycloheximide, 2 mM DTT, 1 mM PMSF, protease inhibitor mix) and total cell extracts were prepared by the glass beads method. After a clearing spin at 20.000 g, each 60 µl of the total glass beads extract (A260 between 80 and 100 mAU) was loaded onto a 90 µl sucrose cushion (25% sucrose, 20 mM Hepes/KOH pH 7.4, 120 mM KOAc, 2 mM Mg(OAc)2, 2 mM DTT, 1 mM PMSF, protease inhibitor mix). After centrifugation at 400.000 g at 4 °C for 25 min the cytosolic supernatant was collected and the ribosomal pellet was resuspended in 300 µl ribosome-binding buffer. Aliquots of the total cell extract, cytosolic supernatant, and resuspended ribosomal pellets were precipitated by addition of TCA (trichloroacetic acid) to a final concentration of 5%. TCA pellets were dissolved in SDS-sample buffer and were analyzed on 10% Tris-Tricine gels followed by immunoblotting.

Data set [3] relates to nascent Pgk1 chains of 50–150 residues. Briefly: crosslinking to ribosome-bound nascent chain. Type of data set: binding, Saccharomyces cerevisiae. The settings on record: Δssb1Δssb2 translation extract (Ssb absent); BS3.
From the text: as §1, §2

Data set [4] has as its system nascent Pgk1-40. Briefly: crosslinking to ribosome-bound nascent chain. The class given is binding, Saccharomyces cerevisiae. The note with it: wild type translation extract; BS3.
From the text: as §1, §2

The test system of data set [5] is nascent Pgk1-45. Briefly: crosslinking to ribosome-bound nascent chain. The settings on record: wild type translation extract; BS3. The class given is binding, Saccharomyces cerevisiae.
From the text: as §1, §2

Data set [6] concerns nascent Pgk1-50. Briefly: crosslinking to ribosome-bound nascent chain. The note with it: wild type translation extract; BS3. The class given is binding, Saccharomyces cerevisiae.
From the text: as §1, §2

Data set [7] can be described thus: nanoDSF thermal stability of RAC core complexes. The note with it: 20 mM Hepes/KOH pH 7.5, 200 mM KCl, 5 mM MgCl2, 1 mM DTT, 20 to 90 °C at 1.5 °C/min, 330/350 nm, no peptide, three measurements shown. Type of data set: physicochemical, Saccharomyces cerevisiae. The protocol: The melting temperature of ScSsz1-Zuo1N, ScSsz1-Zuo1NΔLP or ScSsz1mut-Zuo1NΔLP with or without the LP-peptide (Peptide Specialty Laboratories GmbH, Heidelberg) were determined using the Prometheus NT.48 nanoDSF system using nano-DSF grade capillaries (NanoTemper Technologies GmbH). The measurements were performed in 20 mM Hepes/KOH pH 7.5, 200 mM KCl, 5 mM MgCl2, 1 mM DTT. The LP-peptide, which was dissolved in DMSO, was pre-diluted in the above buffer such that the final DMSO concentration in the experiment was below 0.5%. DMSO diluted in the same way was added to the negative control. Intrinsic protein fluorescence was measured continuously at 330 nm and 350 nm with a temperature gradient ranging from 20 to 90 °C at a rate of 1.5 °C/min. […]
(a-b) NanoDSF analysis of Ssz1-Zuo1N (blue) and Ssz1-Zuo1NDLP (orange) in a and Ssz1-Zuo1NDLP wit hout t he LP-pept ide (orange) or wit h t he LP-pept ide (blue) in b. Three measurements are shown.
Source data are provided as a Source Dat a f ile.
(c) Residues (L439S/K440P/I448F/G495K) mutated in Ssz1mut to block substrate binding to Ssz1-SBDb (cyan) are in stick representation (upper panel). Zuo1N is shown in orange a nd the LP-motif in yellow. Multiple sequence alignment of Hsp70 homologs (lower panel) wit h the mutations highlighted in yellow. The alignment is colored as in Fig. 2a. […]
For orientation: DSF heats the sample and reads unfolding from a dye or from intrinsic fluorescence.

Consider Ssb-ΔC23, for which the “crosslink to nascent Pgk1-100” value in data set [1] (Ssb-ΔC23 translation extract) was “no crosslink between Ssb-ΔC23 and Pgk1-100 was detected”. Moreover, in data set [2] (Ssb-ΔC23 translation extract, supernatant/pellet, immunoblot), the ribosome association result is “not ribosome-associated but fully recovered in the supernatant fraction”. In data set [2] (total cell extract, supernatant/pellet, immunoblot), the ribosome binding entry is given as “fully recovered in the cytosol”.

B1: Ssz1: Hsp70 homolog, RAC subunit (protein)
chain: MSSPVIGITFGNTSSSIAYINPKNDVDVIANPDGERAIPSALSYVGEDEYHGGQALQQLIRNPKNTIINFRDFIGLPFDKCDVSKCANGAPAVEVDGKVGFVISRGEGKEEKLTVDEVVSRHLNRLKLAAEDYIGSAVKEAVLTVPTNFSEEQKTALKASAAKIGLQIVQFINEPSAALLAHAEQFPFEKDVNVVVADFGGIRSDAAVIAVRNGIFTILATAHDLSLGGDNLDTELVEYFASEFQKKYQANPRKNARSLAKLKANSSITKKTLSNATSATISIDSLADGFDYHASINRMRYELVANKVFAQFSSFVDSVIAKAELDPLDIDAVLLTGGVSFTPKLTTNLEYTLPESVEILGPQNKNASNNPNELAASGAALQARLISDYDADELAEALQPVIVNTPHLKKPIGLIGAKGEFHPVLLAETSFPVQKKLTLKQAKGDFLIGVYEGDHHIEEKTLEPIPKEENAEEDDESEWSDDEPEVVREKLYTLGTKLMELGIKNANGVEIIFNINKDGALRVTARDLKTGNAVKGEL
modifications: left off: His6-SUMO, N-terminal, state not stated
notes: Hsp70 homolog, RAC subunit
Consider B1, for which the “crosslink to nascent chains of 50–150 residues” value in data set [3] is listed as “efficient crosslinks”. Besides, the “crosslink to nascent Pgk1-40” value in data set [4] was “formed crosslinks with these short nascent chains”. The “crosslink to nascent Pgk1-45” value in data set [5] is on record as “most efficiently crosslinked to Pgk1-45”. The “crosslink to nascent Pgk1-50” value in data set [6] was “below the detection limit”. Also, in data set [2] (total cell extract), the “localization of Ssz1 in RAC-∆N49” value was “localized to the cytosol” and the “localization of Ssz1 in wild type, RAC-∆N8, or RAC-∆N16” value is “ribosome-bound”.

B2: RAC core complex: ScSsz1 with ScZuo1N (residues 1-50) (protein)
chain 1: B1 chain
chain 2: MFSLPTLTSDITVEVNSSATKTPFVRRPVEPVGKFFLQHAQRTLRNHTWS
modifications: left off: His6-SUMO, N-terminal, state not stated | His6-MBP, N-terminal, cleaved
In the case of B2, the “melting temperature (thermal stability of RAC core complex)” value in data set [7] was 52.9 °C.

B3: Ssz1mut: Ssz1 with L439S/K440P/I448F/G495K in the peptide binding groove (protein)
chain: B1 chain with L439S, K440P, I448F, G495K
In the case of B3, the “contact of nascent Pgk1-100 with Ssz1mut compared to Ssz1” value in data set [1] (RACmut-ΔN8 (Zuo1-ΔN8/Ssz1mut) vs RAC-ΔN8) is recorded as “impaired; also recorded: strongly reduced”.

B4: Zuo1: J-domain protein (Hsp40), RAC subunit (protein)
chain: MFSLPTLTSDITVEVNSSATKTPFVRRPVEPVGKFFLQHAQRTLRNHTWSEFERIEAEKNVKTVDESNVDPDELLFDTELADEDLLTHDARDWKTADLYAAMGLSKLRFRATESQIIKAHRKQVVKYHPDKQSAAGGSLDQDGFFKIIQKAFETLTDSNKRAQYDSCDFVADVPPPKKGTDYDFYEAWGPVFEAEARFSKKTPIPSLGNKDSSKKEVEQFYAFWHRFDSWRTFEFLDEDVPDDSSNRDHKRYIERKNKAARDKKKTADNARLVKLVERAVSEDPRIKMFKEEEKKEKERRKWEREAGARAEAEAKAKAEAEAKAKAESEAKANASAKADKKKAKEAAKAAKKKNKRAIRNSAKEADYFGDADKATTIDEQVGLIVDSLNDEELVSTADKIKANAAGAKEVLKESAKTIVDSGKLPSSLLSYFV
As for B4, the “crosslink to nascent chains of 50–150 residues” value in data set [3] was “efficient crosslinks”. The “crosslink to nascent Pgk1-40” value in data set [4] was “most efficiently crosslinked to Pgk1-40”. Further, the “crosslink to nascent Pgk1-45” value in data set [5] is “formed crosslinks with these short nascent chains”. The “crosslink to nascent Pgk1-50” value in data set [6] is recorded as “below the detection limit”. Further, the “crosslinking of Zuo1 to nascent Pgk1 when RAC or Ssz1 is absent from ribosomes” value in data set [1] (Fig. 1e set-up) is recorded as “strongly enhanced”. Further, the “contact of Zuo1 with nascent Pgk1-100 when Ssz1 was absent or not in a stable complex” value in data set [1] (Δzuo1Δssz1Δssb1Δssb2 RNCs complemented with ribosome-free extracts) is “remained in contact with Zuo1”.
